One block for each molecule: values may come before it.
What was measured:
[1] = Binding of substrate to DhaA mutants
Text: (§1) Carboxytetramethylrhodamine-C10H21NO2—Cl, carboxyfluorescein-C10H21NO2—Cl, and 5-carboxy-X-rhodamine-C10H21NO2—Cl bound to DhaA.H272F but not to DhaA.WT. Biotin-C10H21NO2—Cl bound to DhaA.H272F but not to DhaA.WT.
DhaA.H272 mutants, i.e. H272F/G/A/Q, bound to carboxytetramethylrhodamine-C10H21NO2—Cl.
A control mutant, DhaA.D106Q, single mutants DhaA.D106C, DhaA.D106Y, and DhaA.D106E, as well as double mutants DhaA.D106C:H272F, DhaA.D106E:H272F, DhaA.D106Q:H272F, and DhaA.D106Y:H272F were analyzed for binding to carboxytetramethylrhodamine-C10H21NO2—Cl. Carboxytetramethylrhodamine-C10H21NO2—Cl bound to DhaA.D106C, DhaA.D106C:H272F, DhaA.D106E, and DhaA.H272F. Thus, the bond formed between carboxytetramethylrhodamine-C10H21NO2—Cl and cysteine or glutamate at residue 106 in a mutant DhaA is stable relative to the bond formed between carboxytetramethylrhodamine-C10H21NO2—Cl and DhaA.WT. Other substitutions at position 106 alone or in combination with substitutions at other residues in DhaA may yield similar results. Further, certain substitutions at position 106 alone or in combination with substitutions at other residues in DhaA may result in a mutant DhaA that forms a bond with only certain substrates.

[2] = Binding of substrate to DhaA mutants; remark: listed apart in the source
Text: as §1

[3] = Fluorescence polarization (FP) labeling assay; type: binding; conditions: relative to DhaA.H272F H11YL
Text: Fluorescence polarization (FP) is ideal for the study of small fluorescent ligands binding to proteins. It is unique among methods used to analyze molecular binding because it gives direct nearly instantaneous measure of a substrate bound/free ratio. Therefore, an FP assay was developed as an alternative approach to fluorimage gel analysis of the purified DhaA mutants. […] To place this rate in perspective, approximately 42 and 420-fold more A7 and parental, i.e., DhaA.H272F, protein, respectively, was required in the reaction to obtain measurable rates. Under the labeling conditions used, it is evident that the H11YL mutant was also considerably faster than A7 and parental, DhaA.H272F proteins with the fluorescein-based substrate. However, it appears that labeling of H11YL with carboxyfluorescein-C10H21NO2—Cl is markedly slower than labeling with the corresponding carboxytetramethylrhodamine-C10H21NO2—Cl substrate. Four-fold more H11YL protein was used in the carboxyfluorescein-C10H21NO2—Cl reaction (150 nM) versus the carboxytetramethylrhodamine-C10H21NO2—Cl reaction (35 nM), yet the rate observed appeared to be qualitatively slower than the observed carboxytetramethylrhodamine-C10H21NO2—Cl rate.
Based on the sensitivity and truly homogenous nature of this assay, FP was used to characterize the labeling properties of the purified DhaA mutants with the fluorescently coupled substrates. The data from these studies was then used to calculate a second order rate constant for each DhaA mutant-substrate pair. […] However, in each case labeling was slower with the carboxyfluorescein-C10H21NO2—Cl substrate. All of the first generation DhaA mutants characterized by FP had rates that ranged from 7 to 3555-fold faster than the corresponding parental protein. By far, the biggest impact on labeling rate by a single amino acid substitution occurred with the three replacements at the 273 position (Y273L, Y273M, and Y273C) in the DhaA.H272F background. Nevertheless, in each of the first generation DhaA.H272F mutants tested, labeling with the carboxyfluorescein-C10H21NO2—Cl substrate always occurred at a slower rate (1.6 to 46-fold). […] The H11YL rate constant of 2.2×10^6 M^−1 sec^−1 was nearly identical to the rate constant calculated for a carboxytetramethylrhodamine-coupled biotin/streptavidin interaction. This value is consistent with an on-rate of 5×10^6 M^−1 sec^1 determined for a biotin-streptavidin interaction using surface plasmon resonance analysis (Qureshi et al., 2001). Several of the second generation mutants also had improved rates with the carboxyfluorescein-C10H21NO2—Cl substrate, however, as noted previously, these rates were always slower than with the carboxytetramethylrhodamine-C10H21NO2—Cl substrate. […]

MagneGST-based assay = type: binding
Text: An automated MagneGST™-based assay was used to screen the DhaA mutant protein libraries. […] For clones with at least 50% higher activity than the DhaA.H272F parent, the overall hit rate of the libraries examined varied from between 1-3%. Similar screening results were obtained for the DhaA.D106C libraries (data not shown). The hits identified by the initial primary screen were located in the master plates, consolidated, re-grown and reanalyzed using the MagneGST™ assay. Only those DhaA mutants with at least a 2-fold higher signal than the parental control upon reanalysis were chosen for sequence analysis.
The results of these analyses were consistent with protein labeling studies using SDS-PAGE fluorimage gel analysis. In an effort to determine if combinations of the best mutations identified in the DhaA.H272F background were additive, the three mutations at residue 273 were recombined with the DhaA.H272F A7 and DhaA.H272F H11 mutations. In order to distinguish these recombined protein mutants from the mutants identified in round one of screening (first generation), they are referred to as “second generation” DhaA mutants.

binding to carboxytetramethylrhodamine-C10H21NO2—Cl [1]: bound
binding to 5-carboxy-X-rhodamine-C10H21NO2—Cl [2]: bound
binding to Biotin-C10H21NO2—Cl [2]: bound
binding to carboxyfluorescein-C10H21NO2—Cl [2]: bound
B1: DhaA.H272F: DhaA mutant, catalytic triad His272 replaced with Phe (protein, UniProt P0A3G2 1-293, looked up, variant H272F)
Haloalkane dehalogenase: MSEIGTGFPFDPHYVEVLGERMHYVDVGPRDGTPVLFLHGNPTSSYLWRNIIPHVAPSHRCIAPDLIGMGKSDKPDLDYFFDDHVRYLDAFIEALGLEEVVLVIHDWGSALGFHWAKRNPERVKGIACMEFIRPIPTWDEWPEFARETFQAFRTADVGRELIIDQNAFIEGALPKCVVRPLTEVEMDHYREPFLKPVDREPLWRFPNELPIAGEPANIVALVEAYMNWLHQSPVPKLLFWGTPGVLIPPAEAARLAESLPNCKTVDIGPGLFYLQEDNPDLIGSEIARWLPAL
fold more protein required in the reaction to obtain measurable rates [3]: ~420 fold

B2: YC: DhaA.H272F based mutant with Y273C (protein, UniProt P0A3G2 1-293, looked up, variant H272F Y273C)
Haloalkane dehalogenase: MSEIGTGFPFDPHYVEVLGERMHYVDVGPRDGTPVLFLHGNPTSSYLWRNIIPHVAPSHRCIAPDLIGMGKSDKPDLDYFFDDHVRYLDAFIEALGLEEVVLVIHDWGSALGFHWAKRNPERVKGIACMEFIRPIPTWDEWPEFARETFQAFRTADVGRELIIDQNAFIEGALPKCVVRPLTEVEMDHYREPFLKPVDREPLWRFPNELPIAGEPANIVALVEAYMNWLHQSPVPKLLFWGTPGVLIPPAEAARLAESLPNCKTVDIGPGLFCLQEDNPDLIGSEIARWLPAL
improvement over the parental clones (MagneGST-based assay): significantly improved

B3: YM: DhaA.H272F based mutant with Y273M (protein, UniProt P0A3G2 1-293, looked up, variant H272F Y273M)
Haloalkane dehalogenase: MSEIGTGFPFDPHYVEVLGERMHYVDVGPRDGTPVLFLHGNPTSSYLWRNIIPHVAPSHRCIAPDLIGMGKSDKPDLDYFFDDHVRYLDAFIEALGLEEVVLVIHDWGSALGFHWAKRNPERVKGIACMEFIRPIPTWDEWPEFARETFQAFRTADVGRELIIDQNAFIEGALPKCVVRPLTEVEMDHYREPFLKPVDREPLWRFPNELPIAGEPANIVALVEAYMNWLHQSPVPKLLFWGTPGVLIPPAEAARLAESLPNCKTVDIGPGLFMLQEDNPDLIGSEIARWLPAL
improvement over the parental clones (MagneGST-based assay): significantly improved

B4: YL: DhaA.H272F based mutant with Y273L (protein, UniProt P0A3G2 1-293, looked up, variant H272F Y273L)
Haloalkane dehalogenase: MSEIGTGFPFDPHYVEVLGERMHYVDVGPRDGTPVLFLHGNPTSSYLWRNIIPHVAPSHRCIAPDLIGMGKSDKPDLDYFFDDHVRYLDAFIEALGLEEVVLVIHDWGSALGFHWAKRNPERVKGIACMEFIRPIPTWDEWPEFARETFQAFRTADVGRELIIDQNAFIEGALPKCVVRPLTEVEMDHYREPFLKPVDREPLWRFPNELPIAGEPANIVALVEAYMNWLHQSPVPKLLFWGTPGVLIPPAEAARLAESLPNCKTVDIGPGLFLLQEDNPDLIGSEIARWLPAL
improvement over the parental clones (MagneGST-based assay): significantly improved
